Positions of bridges follow the written chain, without caps; N, C: chain ends. No end group written: not given here. *: point of attachment. Biotin = O=C1N[C@H]2[C@H](CS[C@H]2CCCCC(=O)*)N1
Assays:
Assay type in all cases: cell-based, rat
[1] = system: co-cultures of dorsal root ganglion (DRG) neurons and oligodendrocytes; assay: In vitro myelination in co-cultures of DRG neurons and oligodendrocytes; details: for expression of MBP by western blot: 4-week-old treated cocultures, 10 μg/ml for Fc fusions; for number of myelinating MBP+ cells compared with controls: cocultures infected with lentivirus for two weeks, FIG. 10E; for MBP in cultures by western blot: cocultures infected with lentivirus, FIG. 10F
Procedure: The role of Sp35 in myelination was examined in vitro by treating co-cultures of dorsal root ganglion (DRG) neurons and oligodendrocytes with Sp35-Fc and testing for myelination by immunohistochemistry and electron microscopy. For these studies, it was necessary to first generate primary cultures of DRG neurons and of oligodendrocytes.
Female Long Evans rat E14-E17 embryonic dorsal root ganglia were cultured as described by Plant et al., J. Neurosci. 22:6083-91 (2002). Dissected DRGs were plated on poly-L-lysine-coated cover slips (100 μg/ml) for 2 weeks in the presence of fluorodeoxyuridine for days 2-6 and days 8-11 in NLA medium containing 1× B27, 100 ng/ml NGF (Invitrogen).
A2B5^+ oligodendrocytes were prepared as described in Example 1, and were harvested by trypsinization.
For coculture studies, A2B5^+ oligodendrocytes were added to DRG neuron drop cultures in the presence or absence of 10 μg/ml Sp35-Fc. The culture medium (Neurobasal medium supplemented with B27 and 100 ng/ml NGF) was changed, and fresh Sp35-Fc was added to the cells every 3 d. To identify changes in myelination, 2-week-old cultures were stained by immunohistochemical staining (“IHC”) for neurofilaments with anti-βIII-tubulin antibody to identify axons, or anti-MBP antibody to identify oligodendrocytes., and 4-week-old cultures were subjected to SDS-PAGE followed by western blot analyses to quantify the MBP. In selected examples, cells were fixed for electron microscopy studies by adding 2.5% gluteraldehyde directly onto the cover slips. Myelinated axons in the 2-week-old cultures were quantified by counting the number of myelinated internode bundles that were derived from single MBP^+ oligodendrocytes. Samples were analyzed in duplicate. Error bars denote individual determinations. P values in all studies were determined using a one-way analysis of variance.
Several peptides containing portions of the Ig domain of Sp35 were examined in vitro, by treating co-cultures of dorsal root ganglion (DRG) neurons and oligodendrocytes with Sp35 Ig peptides and testing for myelination as described in Example 5.
For co-culture studies, A2B5^+ oligodendrocytes were added to DRG neuron drop cultures in the presence or absence of 10 μg/ml Sp35-Ig-Fc (Sp35 amino acids 417-493 fused to Fc). The culture medium (Neurobasal medium supplemented with B27 and 100 ng/ml NGF) was changed, and fresh Sp35-Ig-Fc was added to the cells every 3 d. To identify changes in myelination, 2-week-old cultures were stained by immunohistochemical staining (“IHC”) for neurofilaments with anti-βIII-tubulin antibody to identify axons, or anti-MBP antibody to identify oligodendrocytes and 4-week-old cultures were subjected to SDS-PAGE followed by western blot analyses to quantify the MBP.
We performed experiments to address the relative contributions to the myelination process of Sp35 in DRG neurons as compared to oligodendrocytes. We infected DRG neurons, oligodendrocytes and co-cultures (prepared as described in Example 5) with the FL-Sp35 and DN-Sp35 lentiviral vectors described in Example 1 and performed immunohistochemical straining for myelinated MBP cells after two weeks. A 2-fold increase in MBP levels in co-cultures where both cells express DN-Sp35 and a 2-fold decrease in MBP levels in co-cultures where both cells express FL-Sp35 was observed (FIG. 10G).

Fyn kinase = assay: Fyn expression and phosphorylation in oligodendrocytes by western blotting; details: lentivirus-infected oligodendrocytes, FIG. 9B
Procedure: The activity of RhoA GTPase is regulated by Fyn kinase See Liang, X, et al., J. Neurosci. 24:7140-7149 (2004). Increased Fyn expression and phosphorylation correlate with oligodendrocyte differentiation. Id. See also Osterhout, D. J., et al., J. Cell Biol. 145:1209-1218 (1999). To test if Sp35 antagonists affect Fyn function, Fyn expression and phosphorylation were measured directly by western blotting.

Oligodendrocytes = assay: Oligodendrocyte differentiation after infection with FL-Sp35 or DN-Sp35 lentivirus; details: lentivirus at 2 MOI per cell
Procedure: Enriched populations of oligodendrocytes were grown from female Long Evans P2 rats as described by Conn, Meth. Neurosci. 2:1-4 (Academic Press; 1990) with modifications as follows. Briefly, the forebrain was dissected and placed in Hank's buffered salt solution (HBSS; Invitrogen). The tissue was cut into 1-mm fragments and was incubated at 37° C. for 15 min in 0.01% trypsin and 10 μg/ml DNase. Dissociated cells were plated on poly-L-lysine-coated T75 tissue culture flasks and were grown at 37° C. for 10 d in DMEM medium with 20% fetal calf serum (Invitrogen). Oligodendrocyte precursors (A2B5+) were collected by shaking the flask overnight at 200 rpm at 37° C., resulting in a 95% pure population. Cultures were maintained in high-glucose Dulbecco's modified Eagle's medium (DMEM) with FGF/PDGF (10 ng/ml; Peprotech) for 1 week. Removal of FGF/PDGF allowed A2B5^+ cells to differentiate into O4^+ premyelinating oligodendrocytes after 3-7 d, and to differentiate into O4^+ and MBP^+ mature oligodendrocytes after 7-10 d. These differentiation states are readily apparent from changes in morphology: A2B5^+ cells are bipolar in shape, O4^+ premyelinating oligodendrocytes have longer and more branched processes and MBP^+ mature oligodendrocytes contain myelin sheet structures between processes.
We constructed lentiviral vectors that express wild-type and a dominant-negative form of Sp35. […]

[2] = co-cultures where both cell types express the construct, two weeks, FIG. 10G

## Ac-CLSPEKVC (SEQ ID NO:67) (disulfide 1-8 (inferred); listed as Homo sapiens) [cyclic control peptide, reference compound]
[1]
  expression of MBP by western blot: no increase in MBP

## Ac-CLSPRKHC (SEQ ID NO:66) (Ac-CLSPRKHC-NH2; disulfide 1-8 (inferred); listed as Homo sapiens) [cyclized LSPRKH peptide with terminal cysteines, acetyl at N-terminus and NH2 at C-terminus]
[1]
  expression of MBP by western blot: increased expression of MBP

## Biotin-GSGCKHSPLRC (SEQ ID NO:64; cysteine pairing not given here) [reference compound]
[1]
  expression of MBP by western blot: no increase in MBP

## Biotin-GSGCLSPEKVC (SEQ ID NO:65; cysteine pairing not given here) [reference compound]
[1]
  expression of MBP by western blot: no increase in MBP

## Biotin-GSGCLSPRKHC (SEQ ID NO:63; cysteine pairing not given here)
[1]
  expression of MBP by western blot: increased expression of MBP

B1: FL-Sp35: mouse full length Sp35, amino acid residues 34-614 of SEQ ID NO:2, expressed from lentiviral vector (protein, listed as Homo sapiens)
chain: TGCPPRCECSAQDRAVLCHRKRFVAVPEGIPTETRLLDLGKNRIKTLNQDEFASFPHLEELELNENIVSAVEPGAFNNLFNLRTLGLRSNRLKLIPLGVFTGLSNLTKLDISENKIVILLDYMFQDLYNLKSLEVGDNDLVYISHRAFSGLNSLEQLTLEKCNLTSIPTEALSHLHGLIVLRLRHLNINAIRDYSFKRLYRLKVLEISHWPYLDTMTPNCLYGLNLTSLSITHCNLTAVPYLAVRHLVYLRFLNLSYNPISTIEGSMLHELLRLQEIQLVGGQLAVVEPYAFRGLNYLRVLNVSGNQLTTLEESVFHSVGNLETLILDSNPLACDCRLLWVFRRRWRLNFNRQQPTCATPEFVQGKEFKDFPDVLLPNYFTCRRARIRDRKAQQVFVDEGHTVQFVCRADGDPPPAILWLSPRKHLVSAKSNGRLTVFPDGTLEVRYAQVQDNGTYLCIAANAGGNDSMPAHLHVRSYSPDWPHQPNKTFAFISNQPGEGEANSTRATVPFPFDIKTLIIATTMGFISFLGVVLFCLVLLFLWSRGKGNTKHNIEIEYVPRKSDAGISSADAPRKFNMKMI
Fyn kinase
  Fyn phosphorylation: reduced by twofold
  Fyn protein expression: reduced by twofold
[1]; [2]
  decrease in MBP levels: 2 fold
[1]
  number of myelinating MBP+ cells compared with controls: decreased the number of myelinating MBP^+ cells twofold
  MBP in cultures by western blot: twofold reduction
[1]; overexpression in either or both cell types
  basal levels of myelination in comparison to control (empty vector): significantly descreased
Oligodendrocytes
  number of mature oligodendrocytes compared with the control: reduction in the number of mature oligodendrocytes

B2: DN-Sp35: dominant negative Sp35, amino acid residues 34-581 of SEQ ID NO:2, expressed from lentiviral vector (protein, listed as Homo sapiens)
chain: TGCPPRCECSAQDRAVLCHRKRFVAVPEGIPTETRLLDLGKNRIKTLNQDEFASFPHLEELELNENIVSAVEPGAFNNLFNLRTLGLRSNRLKLIPLGVFTGLSNLTKLDISENKIVILLDYMFQDLYNLKSLEVGDNDLVYISHRAFSGLNSLEQLTLEKCNLTSIPTEALSHLHGLIVLRLRHLNINAIRDYSFKRLYRLKVLEISHWPYLDTMTPNCLYGLNLTSLSITHCNLTAVPYLAVRHLVYLRFLNLSYNPISTIEGSMLHELLRLQEIQLVGGQLAVVEPYAFRGLNYLRVLNVSGNQLTTLEESVFHSVGNLETLILDSNPLACDCRLLWVFRRRWRLNFNRQQPTCATPEFVQGKEFKDFPDVLLPNYFTCRRARIRDRKAQQVFVDEGHTVQFVCRADGDPPPAILWLSPRKHLVSAKSNGRLTVFPDGTLEVRYAQVQDNGTYLCIAANAGGNDSMPAHLHVRSYSPDWPHQPNKTFAFISNQPGEGEANSTRATVPFPFDIKTLIIATTMGFISFLGVVLFCLVLLFLWSRGKG
Fyn kinase
  Fyn phosphorylation: twofold increases
  Fyn protein expression: twofold increases
[1]; [2]
  increase in MBP levels: 2 fold
[1]
  number of myelinating MBP+ cells compared with controls: increased the total number of myelinating MBP^+ cells five- to tenfold
  MBP in cultures by western blot: tenfold increase
Oligodendrocytes
  number of mature oligodendrocytes compared with the control: increase in the number of mature oligodendrocytes

B3: Sp35-Ig-Fc: Sp35 amino acids 417-493 fused to Fc (protein)
chain: RARIRDRKAQQVFVDEGHTVQFVCRADGDPPPAILWLSPRKHLVSAKSNGRLTVFPDGTLEVRYAQVQDNGTYLCIA
modifications: left off: a dimerising Fc or GST
notes: Sp35 amino acids 417-493 fused to Fc
[1]
  expression of MBP by western blot: increased
[1]; western blot, FIG. 15
  increase in MBP protein compared with Sp35-Fc: comparable

Source: US8486893B2, “Treatment of conditions involving demyelination” (Biogen Idec MA Inc., priority 2004, dated 2013)
